The target in test [1] is T1, C3G full-length wild type (human, isoform a, residues 4-1077) (human) (UniProt Q13905).
T1 sequence: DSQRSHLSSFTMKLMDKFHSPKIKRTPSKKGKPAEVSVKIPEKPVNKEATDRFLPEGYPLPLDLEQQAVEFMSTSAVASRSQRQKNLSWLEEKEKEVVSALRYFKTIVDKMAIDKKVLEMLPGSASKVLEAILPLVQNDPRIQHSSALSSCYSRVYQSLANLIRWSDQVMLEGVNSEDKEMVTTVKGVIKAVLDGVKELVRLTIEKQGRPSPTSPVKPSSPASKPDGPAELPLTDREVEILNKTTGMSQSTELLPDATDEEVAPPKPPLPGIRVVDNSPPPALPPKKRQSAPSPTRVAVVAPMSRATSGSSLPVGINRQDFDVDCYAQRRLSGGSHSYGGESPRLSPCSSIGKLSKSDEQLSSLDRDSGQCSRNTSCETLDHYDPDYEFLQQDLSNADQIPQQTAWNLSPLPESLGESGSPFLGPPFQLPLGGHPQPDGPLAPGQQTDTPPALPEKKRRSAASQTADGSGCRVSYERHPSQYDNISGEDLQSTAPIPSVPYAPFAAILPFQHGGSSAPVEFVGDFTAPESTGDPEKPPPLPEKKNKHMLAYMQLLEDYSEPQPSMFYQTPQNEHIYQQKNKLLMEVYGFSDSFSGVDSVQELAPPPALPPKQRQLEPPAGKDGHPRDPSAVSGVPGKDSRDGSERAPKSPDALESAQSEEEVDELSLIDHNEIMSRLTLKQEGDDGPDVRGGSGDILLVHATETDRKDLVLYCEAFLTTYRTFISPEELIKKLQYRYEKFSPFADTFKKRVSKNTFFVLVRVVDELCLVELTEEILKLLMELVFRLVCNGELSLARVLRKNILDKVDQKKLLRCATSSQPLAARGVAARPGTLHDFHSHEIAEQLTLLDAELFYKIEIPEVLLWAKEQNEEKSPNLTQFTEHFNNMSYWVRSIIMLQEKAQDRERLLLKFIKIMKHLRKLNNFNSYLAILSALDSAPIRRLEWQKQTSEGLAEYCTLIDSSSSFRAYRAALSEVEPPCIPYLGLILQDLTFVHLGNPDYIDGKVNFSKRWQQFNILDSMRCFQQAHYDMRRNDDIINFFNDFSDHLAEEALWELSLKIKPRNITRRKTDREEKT

Test [2] concerns the target T2, Src-phosphorylated C3G (pC3G), wild type (human) (UniProt Q13905).
T2 sequence (chain, phosphotyrosines (phosphorylated in vitro by Src; sites not stated)): T1 sequence

A further test concerns the target C3G P1 P1 (Homo sapiens) (UniProt Q13905). The following applies: cited from earlier work.
The target in test [3] is the P1 (C3G-PAAA) and P2 (C3G-APAA) motifs. The experiment in a line: ITC; single-PRM mutants of C3G in the cell titrated with full-length CrkL or CrkL-SH3N; 25 °C; 1:1 model in SEDPHAT; N is the competent fraction of C3G.

Sequence of CrkL, full-length (human) (P46109 whole entry): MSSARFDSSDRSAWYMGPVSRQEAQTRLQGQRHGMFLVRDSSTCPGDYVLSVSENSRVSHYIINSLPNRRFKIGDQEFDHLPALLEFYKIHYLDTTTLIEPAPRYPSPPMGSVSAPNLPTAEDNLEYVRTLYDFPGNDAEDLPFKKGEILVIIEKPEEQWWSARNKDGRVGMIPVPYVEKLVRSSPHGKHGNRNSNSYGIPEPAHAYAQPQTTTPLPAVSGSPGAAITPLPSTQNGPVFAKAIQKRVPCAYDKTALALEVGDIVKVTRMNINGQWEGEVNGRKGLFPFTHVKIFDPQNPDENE
Sequence of CrkL (P46109 whole entry): as above

For the substance “CrkII-L-II chimera (from UniProt P46108-1 1-133; P46109 125-182; P46108-1 191-304)”, in test [1], the AC50 of the dose-response activation of the GEF activity of C3G (1 µM) on Rap1b:mant-dGDP was 18.7 µM and the kmax of the dose-response activation of the GEF activity of C3G (1 µM) on Rap1b:mant-dGDP was 7900 M⁻¹ s⁻¹. Moreover, in test [2], the AC50 of the dose-response activation of the GEF activity of pC3G (0.2 µM) on Rap1b:mant-dGDP stood at 1.6 µM and the kmax of the dose-response activation of the GEF activity of pC3G (0.2 µM) on Rap1b:mant-dGDP was determined as 0.03 s^-1 µM^-1.

Take CrkL (from UniProt P46109): the Kd in the test with C3G P1 P1 (Homo sapiens) was 2.8 µM.

Regarding “CrkL, full-length (human) (from UniProt P46109 1-303) (natural protein)”, the stoichiometry N in test [3] lay in the range of 0.8 to 0.9.

For the substance “CrkL-II-L chimera (from UniProt P46109 1-124; P46108-1 134-191; P46109 183-303)”, in test [1], the AC50 of the dose-response activation of the GEF activity of C3G (1 µM) on Rap1b:mant-dGDP was found to be 16.7 µM and the kmax of the dose-response activation of the GEF activity of C3G (1 µM) on Rap1b:mant-dGDP was determined as 7900 M⁻¹ s⁻¹. In test [2], this substance yielded an AC50 of the dose-response activation of the GEF activity of pC3G (0.2 µM) on Rap1b:mant-dGDP of 2.3 µM and a kmax of the dose-response activation of the GEF activity of pC3G (0.2 µM) on Rap1b:mant-dGDP of 0.0336 s^-1 µM^-1.

Values taken from publication PMC9896810.
